Measurements reported in patent publication US20250296960A1, “PEPTIDE COMPOSITIONS AND METHODS OF USE THEREOF” (priority 2022, published 2025).
Read-outs that look alike come from different tables or passages of the source. Numbered stars: 1 amine (or outer) side, 2 acyl side, 3 side chain; on linkers, the order of the positions; unused ones are H or OH. Square brackets hold non-standard residues; d marks the D form. Side chains are listed from the residue outwards. Ends that are not written are not given here. * marks the point of attachment. C18 = C18 fatty acid (C16-C22 fatty acids conjugated via γGlu/8-amino-3,6-dioxaoctanoic acid spacers); Biotin = O=C1N[C@H]2[C@H](CS[C@H]2CCCCC(=O)*)N1; γGlu = O=C(O)[C@H](CCC(=O)[*:2])N[*:1]; biotin‑maleimide = B1-MAL; AEEA = NCCOCCOCC(=O)O; Aib = CC(C)(N)C(=O)O; MAL = maleimide

Assays:
Assay in all cases: cell-based or functional assay
[1] = biological target: T1, human glucagon receptor (GCGR), expressed on CHO-K1 cells (human, UniProt P47871 26-477)
[2] = biological target: T2, human glucose-dependent insulinotropic polypeptide receptor (GIPR), expressed on CHO-K1 cells (human, UniProt P48546 22-466)
T2 sequence (looked up): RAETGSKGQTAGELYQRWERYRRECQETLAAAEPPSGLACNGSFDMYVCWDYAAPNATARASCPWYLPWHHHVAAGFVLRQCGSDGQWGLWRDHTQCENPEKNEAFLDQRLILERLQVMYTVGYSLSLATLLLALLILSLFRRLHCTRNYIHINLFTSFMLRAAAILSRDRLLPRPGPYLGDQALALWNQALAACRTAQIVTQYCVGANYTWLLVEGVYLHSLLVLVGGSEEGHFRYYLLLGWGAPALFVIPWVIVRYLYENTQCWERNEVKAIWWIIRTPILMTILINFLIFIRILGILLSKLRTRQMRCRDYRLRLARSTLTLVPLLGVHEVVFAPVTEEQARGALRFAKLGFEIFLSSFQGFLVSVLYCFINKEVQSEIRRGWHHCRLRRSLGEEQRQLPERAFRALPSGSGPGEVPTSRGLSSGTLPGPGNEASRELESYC

[3] = biological target: T3, human GLP-1 receptor (GLP-1R), expressed on CHO-K1 cells (human, UniProt P43220 24-463)
[4] = biological target: T2, human glucose-dependent insulinotropic …; remark: listed apart in the source
[5] = biological target: T3, human GLP-1 receptor (GLP-1R), …; remark: listed apart in the source
[6] = biological target: T1, human glucagon receptor (GCGR), …; remark: listed apart in the source
[7] = biological target: T3, human GLP-1 receptor (GLP-1R), …; remark: listed apart in the source
[8] = biological target: T2, human glucose-dependent insulinotropic …; remark: listed apart in the source
[9] = biological target: T1, human glucagon receptor (GCGR), …; remark: listed apart in the source
[10] = biological target: T3, human GLP-1 receptor (GLP-1R), …; remark: listed apart in the source
[11] = biological target: T2, human glucose-dependent insulinotropic …; remark: listed apart in the source
[12] = biological target: T1, human glucagon receptor (GCGR), …; remark: listed apart in the source
[13] = biological target: T3, human GLP-1 receptor (GLP-1R), …; remark: listed apart in the source
[14] = biological target: T2, human glucose-dependent insulinotropic …; remark: listed apart in the source
[15] = biological target: T1, human glucagon receptor (GCGR), …; remark: listed apart in the source
[16] = biological target: T3, human GLP-1 receptor (GLP-1R), …; remark: listed apart in the source
[17] = biological target: T2, human glucose-dependent insulinotropic …; remark: listed apart in the source
[18] = biological target: T1, human glucagon receptor (GCGR), …; remark: listed apart in the source
[19] = biological target: T3, human GLP-1 receptor (GLP-1R), …; remark: listed apart in the source
[20] = biological target: T2, human glucose-dependent insulinotropic …; remark: listed apart in the source
[21] = biological target: T1, human glucagon receptor (GCGR), …; remark: listed apart in the source
[22] = biological target: T3, human GLP-1 receptor (GLP-1R), …; remark: listed apart in the source
[23] = biological target: T2, human glucose-dependent insulinotropic …; remark: listed apart in the source
[24] = biological target: T1, human glucagon receptor (GCGR), …; remark: listed apart in the source

T1 sequence (P47871 26-477): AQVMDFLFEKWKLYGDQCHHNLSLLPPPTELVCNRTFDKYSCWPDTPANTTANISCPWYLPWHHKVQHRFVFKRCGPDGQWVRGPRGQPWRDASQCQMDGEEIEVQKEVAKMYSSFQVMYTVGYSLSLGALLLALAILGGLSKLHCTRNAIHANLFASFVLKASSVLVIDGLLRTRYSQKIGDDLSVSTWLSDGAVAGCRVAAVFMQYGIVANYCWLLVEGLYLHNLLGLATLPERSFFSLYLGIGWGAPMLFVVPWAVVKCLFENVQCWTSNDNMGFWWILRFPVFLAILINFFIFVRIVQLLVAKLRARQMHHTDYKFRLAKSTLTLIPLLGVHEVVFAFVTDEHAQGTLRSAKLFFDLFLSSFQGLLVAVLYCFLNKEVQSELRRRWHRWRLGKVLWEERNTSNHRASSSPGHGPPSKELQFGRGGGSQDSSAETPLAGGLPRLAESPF

With H[Aib]QGTFTSDHSWYLDKWTAHDFVQWLINGGPSSGAPPPSC-NH2 [Peptide No. 18 (with C-terminal cysteine)] the “Percentage change in EC50 relative to GCG at human GCGR (%)” value [1] was 1%, the “Percentage change in EC50 relative to GIP at human GIPR (%)” value [2] was 0% and the “Percentage change in EC50 relative to GLP-1 at human GLP-1R (%)” value [3] was 40%.

For H[Aib]QGTFTSDWSKYLDQQMAQDFVDWLINGGPSSGAPPPSC([MAL-AEEA-AEEA-γGlu-C18])-NH2 [Peptide No. 12A (peptide 12, A type: lipid at Cys40)], the “Percentage change in EC50 relative to GIP at human GIPR (%)” value [4] was 8%, the “Percentage change in EC50 relative to GLP-1 at human GLP-1R (%)” value [5] was 296% and the “Percentage change in EC50 relative to GCG at human GCGR (%)” value [6] was 15%.

H[Aib]QGTFTSDYSKLLDYMMQRDFVQWLLEGGPSSGAPPPSC([MAL-AEEA-AEEA-γGlu-C18])-NH2 [Peptide No. 5-5A] was tested, and the “EC50 (nM), cAMP assay” value [7] was 0.0747 nM, the “EC50 (nM), cAMP assay” value [8] was 5.17 nM and the “EC50 (nM), cAMP assay” value [9] was 9.43 nM. For the same binder, the “Relative % to native ligand” value [10] was 673%, the “Relative % to native ligand” value [11] was 14% and the “Relative % to native ligand” value [12] was 1%. For the same binder, the “Activity relative to GLP-1 (%)” value [13] was 100%, the “Activity relative to GLP-1 (%)” value [14] was 2% and the “Activity relative to GLP-1 (%)” value [15] was 0%. The “Ratio vs. GLP-1R” value [16] was 100, the “Ratio vs. GLP-1R” value [17] was 2 and the “Ratio vs. GLP-1R” value [18] was 0. For the same binder, the “Relative % to non-lipidated peptide” value [19] was 40%, the “Relative % to non-lipidated peptide” value [20] was 3% and the “Relative % to non-lipidated peptide” value [21] was 1%.

In the case of Y[Aib]QGTFTSDYSKYLDYMMQRDFVQWLIEGGPSSGAPPPSC-NH2 (not fully specified (residue 40)) [Peptide No. 5-2A], the “EC50 (nM), cAMP assay” value [7] is reported as 0.348 nM, the “EC50 (nM), cAMP assay” value [8] is reported as 24.7 nM and the “EC50 (nM), cAMP assay” value [9] is reported as 23 nM. The “Relative % to native ligand” value [10] was 145%, the “Relative % to native ligand” value [11] was 3% and the “Relative % to native ligand” value [12] was 1%. For the same binder, the “Activity relative to GLP-1 (%)” value [13] was 100%, the “Activity relative to GLP-1 (%)” value [14] was 2% and the “Activity relative to GLP-1 (%)” value [15] was 0%. The “Ratio vs. GLP-1R” value [16] was 100, the “Ratio vs. GLP-1R” value [17] was 2 and the “Ratio vs. GLP-1R” value [18] was 0. The “Relative % to non-lipidated peptide” value [19] was 29%, the “Relative % to non-lipidated peptide” value [20] was 0.4% and the “Relative % to non-lipidated peptide” value [21] was 1%.

With H[Aib]QGTFTSDYSKYLDYMMARDFVQWLIEGGPSSGAPPPSC([MAL-AEEA-AEEA-γGlu-C18])-NH2 [Peptide No. 5A (peptide 5, A type: lipid at Cys40)] the “EC50 (nM), cAMP assay” value [7] was 0.0967 nM, the “EC50 (nM), cAMP assay” value [8] was 157 nM and the “EC50 (nM), cAMP assay” value [9] was 1.71 nM. The “EC50 (nM), cAMP assay” value [22] was 0.187 nM, the “EC50 (nM), cAMP assay” value [23] was 140 nM and the “EC50 (nM), cAMP assay” value [24] was 9.29 nM.

In the case of Y[Aib]QGTFTSDYSKYLDYMMARDFVQWLIEGGPSSGAPPPSC-NH2 (not fully specified (residue 40)) [Peptide No. 5-1A], the “EC50 (nM), cAMP assay” value [7] is reported as 0.269 nM, the “EC50 (nM), cAMP assay” value [8] is reported as 53.9 nM and the “EC50 (nM), cAMP assay” value [9] is reported as 0.576 nM. The “Relative % to native ligand” value [10] was 187%, the “Relative % to native ligand” value [11] was 1% and the “Relative % to native ligand” value [12] was 24%. For the same binder, the “Activity relative to GLP-1 (%)” value [13] was 100%, the “Activity relative to GLP-1 (%)” value [14] was 1% and the “Activity relative to GLP-1 (%)” value [15] was 13%. The “Ratio vs. GLP-1R” value [16] was 100, the “Ratio vs. GLP-1R” value [17] was 1 and the “Ratio vs. GLP-1R” value [18] was 13. The “Relative % to non-lipidated peptide” value [19] was 159%, the “Relative % to non-lipidated peptide” value [20] was 11% and the “Relative % to non-lipidated peptide” value [21] was 0%.

In the case of H[Aib]QGTFTSDYSK(Biotin)YLDYMMARDFVQWLIEGGPSSGAPPPSC([MAL-AEEA-AEEA-γGlu-C18])-NH2 [Peptide No. 5B (peptide 5, B type: lipid at Cys40 and biotin at Lys12)], the “EC50 (nM), cAMP assay” value [22] is reported as 0.18 nM, the “EC50 (nM), cAMP assay” value [23] is reported as 97.2 nM and the “EC50 (nM), cAMP assay” value [24] is reported as 15.1 nM.

For H[Aib]QGTFTSDHSKYLDGAWAADFVMWLLDGGPSSGAPPPSC-NH2 [Peptide No. 57 (with C-terminal cysteine)], the “Percentage change in EC50 relative to GCG at human GCGR (%)” value [1] was 1%, the “Percentage change in EC50 relative to GIP at human GIPR (%)” value [2] was 0% and the “Percentage change in EC50 relative to GLP-1 at human GLP-1R (%)” value [3] was 1%.

H[Aib]QGTFTSDWSKYLDQQMAQDFVDWLINGGPSSGAPPPSC-NH2 [Peptide No. 12 (with C-terminal cysteine)] was tested, and the “Percentage change in EC50 relative to GCG at human GCGR (%)” value [1] was 1200%, the “Percentage change in EC50 relative to GIP at human GIPR (%)” value [2] was 4% and the “Percentage change in EC50 relative to GLP-1 at human GLP-1R (%)” value [3] was 303%.

For H[Aib]QGTFTSDASKYLDRDWTGDFVQWLIDGGPSSGAPPPSC([MAL-AEEA-AEEA-γGlu-C18])-NH2 [Peptide No. 32A (peptide 32, A type: lipid at Cys40)], the “Percentage change in EC50 relative to GIP at human GIPR (%)” value [4] was 0%, the “Percentage change in EC50 relative to GLP-1 at human GLP-1R (%)” value [5] was 1% and the “Percentage change in EC50 relative to GCG at human GCGR (%)” value [6] was 0%.

For H[Aib]QGTFTSDYSK([AEEA-AEEA-γGlu-C18])YLDYMMARDFVQWLIEGGPSSGAPPPSC(biotin‑maleimide)-NH2 [Peptide No. 5C (peptide 5, C type: lipid at Lys12 and biotin at Cys40)], the “EC50 (nM), cAMP assay” value [22] was 0.0772 nM, the “EC50 (nM), cAMP assay” value [23] was 24.2 nM and the “EC50 (nM), cAMP assay” value [24] was 3.23 nM.

In the case of H[Aib]QGTFTSDHSWYLDKWTAHDFVQWLINGGPSSGAPPPSC([MAL-AEEA-AEEA-γGlu-C18])-NH2 [Peptide No. 18A (peptide 18, A type: lipid at Cys40)], the “Percentage change in EC50 relative to GIP at human GIPR (%)” value [4] is reported as 0%, the “Percentage change in EC50 relative to GLP-1 at human GLP-1R (%)” value [5] is reported as 0% and the “Percentage change in EC50 relative to GCG at human GCGR (%)” value [6] is reported as 0%.
